Measured values reported in patent US20250195657A1 (NEOMICS PHARMACEUTICALS, published 2025).

Biological target: T1, B cell maturation antigen (BCMA) (UniProt Q02223 1-54, limits assumed)
T1 construct: also called CD269; TNFRSF17
T1 sequence (looked up): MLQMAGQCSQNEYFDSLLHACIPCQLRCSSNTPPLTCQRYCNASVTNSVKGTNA
Assay: not stated (no method given)

Kd: 1 nM
B1: BCMA nanobody (BCMA binding domain of NPB5005) (VHH)
VHH: EVQLQASGGGLAQPGGSLRLSCAASGRTFSTYFMAWFRQPPGKGLEYVGGIRWSDGVPHYADSVKGRFTISRDNAKNTVYLQMNSLRAEDTAVYFCASRGIADGSDFGSYGQGTQVTVSS
